Publication doi:10.1101/436014, “Human telomere repeat binding factor TRF1 replaces TRF2 bound to shelterin core hub TIN2 when TPP1 is absent” (bioRxiv, 2018)
Each block holds one binder with its values, some of them ahead of it.

How the values were obtained:
[1] = molecular target: TRF1;TIN2 (human;human, UniProt P54274;Q9BSI4 1-439;1-451, |); assay: fluorescence anisotropy; TRF1 5 uM:TIN2 2.5 uM (2:1) stock titrated into 7.5 nM DNA; KD only in figure; 50 mM sodium phosphate pH 7.0, 50 mM NaCl, 25 C; 7.5 nM Alexa Fluor 488-labeled DNA; 2 min incubation per titration step; conditions: protein: recombinant;recombinant; chain copies: 2;1; (described only as annealed with its complementary strand)
[2] = molecular target: T1, Telomere Repeat-binding Factor 1 (TRF1), full-length human (human, UniProt P54274 1-439, Alexa Fluor 594 or Alexa Fluor 488 label where used labeled (site not stated); unlabeled where used as competitor and in MST); assay: MST; Alexa Fluor 488 labeled TIN2 incubated with different concentrations of TRF1 or TRF2; 50 mM sodium phosphate pH 7.0, 50 mM NaCl; 12 °C; apparent KD; conditions: both partners purified
T1 construct: TRF1, human, full-length; Removal of the His tag is not mentioned
T1 sequence (looked up): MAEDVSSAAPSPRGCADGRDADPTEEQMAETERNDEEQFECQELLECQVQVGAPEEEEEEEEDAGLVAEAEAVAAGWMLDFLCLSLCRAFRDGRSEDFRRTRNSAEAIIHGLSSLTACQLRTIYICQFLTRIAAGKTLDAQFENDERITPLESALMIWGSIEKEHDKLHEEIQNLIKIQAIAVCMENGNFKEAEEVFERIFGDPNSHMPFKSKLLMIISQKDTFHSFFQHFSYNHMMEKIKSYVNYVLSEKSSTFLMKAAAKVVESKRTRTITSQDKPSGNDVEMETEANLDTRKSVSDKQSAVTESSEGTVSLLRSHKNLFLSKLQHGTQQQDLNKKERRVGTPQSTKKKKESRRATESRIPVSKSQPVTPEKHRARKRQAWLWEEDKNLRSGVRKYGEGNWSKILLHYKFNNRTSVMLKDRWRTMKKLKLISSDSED

[3] = molecular target: T2, Telomere Repeat-binding Factor 2 (TRF2), full-length human (human, UniProt Q15554 1-542, Alexa Fluor 594 or Alexa Fluor 488 label where used labeled (site not stated); unlabeled where used as competitor and in MST); assay: as above; conditions: both partners purified
T2 construct: TRF2, human, full-length; Removal of the His tag is not mentioned
T2 sequence (looked up): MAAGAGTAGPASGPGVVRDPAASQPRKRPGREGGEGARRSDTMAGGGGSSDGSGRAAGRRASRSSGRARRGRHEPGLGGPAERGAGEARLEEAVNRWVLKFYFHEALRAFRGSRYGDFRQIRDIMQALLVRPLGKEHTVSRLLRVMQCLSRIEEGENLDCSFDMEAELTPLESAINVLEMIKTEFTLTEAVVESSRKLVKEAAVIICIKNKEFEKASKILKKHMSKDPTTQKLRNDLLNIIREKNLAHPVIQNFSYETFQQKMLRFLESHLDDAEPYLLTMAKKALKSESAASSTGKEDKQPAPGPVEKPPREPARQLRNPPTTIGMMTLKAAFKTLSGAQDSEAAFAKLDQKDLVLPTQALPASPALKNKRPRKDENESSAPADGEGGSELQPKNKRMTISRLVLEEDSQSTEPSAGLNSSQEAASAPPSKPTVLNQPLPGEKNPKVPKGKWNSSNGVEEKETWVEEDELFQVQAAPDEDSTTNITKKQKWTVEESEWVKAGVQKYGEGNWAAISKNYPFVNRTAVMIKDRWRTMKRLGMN

B1: R5 telomeric duplex (five repeats) (dsDNA)
DNA 1: GTTAGGGTTAGGGTTAGGGTTAGGGTTAGGGTTAG
DNA 2: CTAACCCTAACCCTAACCCTAACCCTAACCCTAAC
binding result [1]: binds

Kd [2]: 240 nM
Kd [3]: 360 nM
B2: TRF1-Interacting Nuclear factor 2 (TIN2), full-length human (natural protein)
chain: ATPLVAGPAALRFAAAASWQVVRGRCVEHFPRVLEFLRSLRAVAPGLVRYRHHERLCMGLKAKVVVELILQGRPWAQVLKALNHHFPESGPIVRDPKATKQDLRKILEAQETFYQQVKQLSEAPVDLASKLQELEQEYGEPFLAAMEKLLFEYLCQLEKALPTPQAQQLQDVLSWMQPGVSITSSLAWRQYGVDMGWLLPECSVTDSVNLAEPMEQNPPQQQRLALHNPLPKAKPGTHLPQGPSSRTHPEPLAGRHFNLAPLGRRRVQSQWASTRGGHKERPTVMLFPFRNLGSPTQVISKPESKEEHAIYTADLAMGTRAASTGKSKSPCQTLGGRALKENPVDLPATEQKENCLDCYMDPLRLSLLPPRARKPVCPPSLCSSVITIGDLVLDSDEEENGQGEGKESLENYQKTKFDTLIPTLCEYLPPSGHGAIPVSSCDCRDSSRPL
modifications: Alexa Fluor 488 label where used labeled (site not stated); unlabeled in the TRF1/TRF2 cross-correlation experiment and in SEC
